Measurements taken from article PMC2722380.

Biological target: His-tagged p55 fusion protein (recombinant full length human erythrocyte p55), expressed in E. coli (human) (UniProt Q00013)
Assay: SPR

Chain of His-tagged p55 fusion protein (recombinant full length human erythrocyte p55), expressed in E. coli (human) (Q00013 whole entry, the tested form may be a part): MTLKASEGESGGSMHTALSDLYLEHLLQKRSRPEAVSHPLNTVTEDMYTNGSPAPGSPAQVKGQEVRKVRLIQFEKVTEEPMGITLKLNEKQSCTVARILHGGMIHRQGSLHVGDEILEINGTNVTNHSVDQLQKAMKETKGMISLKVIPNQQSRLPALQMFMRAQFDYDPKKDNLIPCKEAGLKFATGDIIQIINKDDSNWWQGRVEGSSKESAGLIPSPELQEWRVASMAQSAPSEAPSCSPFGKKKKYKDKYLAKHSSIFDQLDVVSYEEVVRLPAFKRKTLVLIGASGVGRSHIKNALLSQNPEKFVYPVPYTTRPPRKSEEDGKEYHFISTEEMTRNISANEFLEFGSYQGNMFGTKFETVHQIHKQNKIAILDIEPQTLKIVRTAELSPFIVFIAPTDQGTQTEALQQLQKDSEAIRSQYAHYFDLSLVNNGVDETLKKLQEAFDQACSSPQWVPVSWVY

Row | Kd | koff | kon | Substance
1 | 15 nM | 0.0024 s⁻¹ | 160000 M⁻¹ s⁻¹ | MBP fusion of the exon 5-encoded peptide of protein 4.1R (domain or fragment)
2 | 30 nM | 0.0018 s⁻¹ | – | MBP fusion of the exon 10-encoded peptide of protein 4.1R (domain or fragment)
3 | 132 nM | 0.0029 s⁻¹ | 22000 M⁻¹ s⁻¹ | MBP-FERMΔExon 5 fusion protein of human protein 4.1R (lacks exon 5, contains exon 10) (domain or fragment)
